Non-standard residues stand in square brackets, D forms with d. No end group written: not given here. pY = N[C@@H](Cc1ccc(OP(=O)(O)O)cc1)C(=O)O
T1: 6xHis/Flag-tagged human SHP2 N-SH2 domain (human, UniProt Q06124 1-107)
T1 construct: human SHP2 phosphatase, N-SH2 domain, aa; 1-107; Gene synthesized; also called SHP2 SH2-N; SHP2 SH2(N) domain; source: E. coli, purified (Nickel-NTA, gel filtration)
T1 sequence (looked up): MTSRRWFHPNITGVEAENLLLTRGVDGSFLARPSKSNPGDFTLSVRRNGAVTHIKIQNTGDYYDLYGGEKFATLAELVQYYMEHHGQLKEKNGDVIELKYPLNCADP


Legend:
Details in all cases: both partners purified
[1] = target: T2, 6xHis-tagged HACS1 SH3 domain (human, UniProt Q9NSI8 163-224); assay: ITC; 600 µM PIRB-GB1 in the syringe, 37 µM 6xHis-tagged HACS1 SH3 domain in the cell; 10 mM Tris, 50 mM NaCl, 1 mM TCEP, 0.05 NaN3, pH 7.5; single-site binding model
T2 construct: human HACS1 SH3 domain, codon-optimized synthetic gene; Gene synthesized, in a pD441NH expression vector (ATUM); 15N-labelled in the NMR experiments; Minimal folded SH3 domain is 168-222 by the NMR structure; also called HACS SH3 domain; 6xHis-tagged SH3 domain; source: E. coli, purified (Nickel-NTA, gel filtration)
T2 sequence (Q9NSI8 163-224): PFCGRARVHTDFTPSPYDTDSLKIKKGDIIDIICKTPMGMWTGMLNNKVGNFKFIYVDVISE

[2] = target: T2, 6xHis-tagged HACS1 SH3 domain; assay: SPR; biotinylated phosphopeptide on a streptavidin gold sensor chip (OpenSPR); analyte 20 µM to 0.1 µM in 10 mM Tris-HCl, 100 mM NaCl, pH 7.4, 0.1% bovine serum albumin, 0.005% Tween-20, 0.05% NaN3; 40 µL/min; 1:1 interaction model
[3] = target: T1, 6xHis/Flag-tagged human SHP2 N-SH2 …; assay: as above

Row | Kd [1] | stoichiometry N [1] | Kd [2] | koff [2] | kon [2] | Kd [3] | koff [3] | kon [3] | Binder
1 | 15.9 µM | 1 |  |  |  |  |  |  | LCSRTLRQGAAAS (peptide, UniProt P97484 797-809, looked up, 797-809; Methods: PIRB fragment and GB1 separated by a random 13 amino acid linker; Not phosphorylated; also called PIRB-GB1 hybrid protein; Protein GB1-tagged PIRB; source: E. coli, purified (Nickel-NTA, gel filtration); not shown: Protein G B1 domain (GB1), C-terminal, kept) [murine PIRB-GB1 fusion protein]
2 |  |  | 8.7 µM | 0.017 s⁻¹ | 1900 M⁻¹ s⁻¹ | 6.7 µM | 0.026 s⁻¹ | 3800 M⁻¹ s⁻¹ | GGQDVT[pY]AQLHSLTRLREATE (also: biotin (position not given here)) [biotinylated human PIRB derived phosphopeptide]
3 |  |  | 15.9 µM |  |  |  |  |  | GGQDVT[pY]AQLCSRTLRQGAAAS (also: biotin (position not given here), The leading GG may be a spacer and not part of PIRB; also called murine PIRB phospho-ITIM3 peptide; source: synthetic peptide (Genscript)) [biotinylated murine PIRB derived phosphopeptide]

Source: publication PMC7666139 (Communications Biology, 2020)
